This note sets out measurements from article PMC9526445.

In the assay the target is SpPks1 (sea urchin polyketide synthase, Strongylocentrotus purpuratus) (Strongylocentrotus purpuratus). Kind of assay: SEC.

One may read the stoichiometry N as the number of molecules, sites or subunits per partner or assembly. “SpPks1 (sea urchin polyketide synthase, Strongylocentrotus purpuratus) (enzyme)” gave a stoichiometry N of 2.
